Patent US20250215092A1 (ZHEJIANG NANOMAB TECHNOLOGY CENTER, published 2025)

Legend:
[1] = target: T1, EGFR-D4 (F481-S645, P00533-1 (uniprot)) his tag antigen (human, UniProt P00533 481-645); test: ELISA: EGFR-D4 his tag antigen coated at 0.5 µg/mL, antibody at 2000, 200, 20, 2 nM, HRP goat anti-human IgG Fc, OD450
T1 construct: range 481-645; also called IV domain protein; EGFR-D4 protein; not shown: His tag
Procedure: (2) Protein Binding Epitope Analysis: ELISA was used to determine the binding of VHH-IgG4 antibody to each domain of EGFR extracellular protein. Briefly, EGFR his tag protein, and EGFR-V3-his tag antigen protein were diluted to 1 μg/mL, EGFR-D1D2 (L25-A310, P00533-1 (uniprot)), and EGFR-D4 (F481-S645, P00533-1 (uniprot)) his tag antigen were diluted to 0.5 μg/mL, and each well of an ELISA plate was coated with […] antigen and incubated overnight at 4° C. The next day, the plates were washed twice with PBST (added with 0.5% TWEEN-20), then blocked with 3% BSA at 37° C. for 1.5 h, and then washed twice with PBST. Then, the antibody to be tested was diluted to 50 nM, 5 nM, 0.5 nM, 0.05 nM, and added to the wells coated with EGFR his tag protein or EGFR-V3-his tag antigen at 100 µL/well, respectively. The antibody was diluted to 2000 nM, 200 nM, 20 nM, 2 nM, and added to the wells coated with EGFR his tag protein or EGFR-V3-his tag antigen at 100 µL/well, respectively. The ELISA plates were incubated at 37° C. for 1 h. The plates were then washed three times with PBST, and then 100 μL HRP labeled Goat anti human IgG Fc antibody (1:10000, Bethyl) was added into each well, and incubated at 37° C. for another 40 min. After washing the plates four times with PBST, 100 μL of TMB substrate was added to each well, and the reaction was allowed to proceed for 3-5 min. The reaction was stopped by adding 100 μL of 3N hydrochloric acid per well. After stopping the reaction, the optical density at 450/650 nm was measured using a Tecan microplate reader.

[2] = target: T2, human EGFR.His antigen (Acro, Cat #EGR-H522a) (human, UniProt P00533 25-645); test: competition ELISA: EGFR his tag protein coated, antibody titrated together with Human EGF-mouse IgG2a Fc, bound EGF detected with HRP anti-mouse IgG, unit taken from the concentration axis (paragraph 62 says nM); OD450 falls only from about 2.4 to about 2.1 [table]
T2 construct: extracellular domain; Bought protein; also called EGFR his tag protein; full-length EGFR extracellular domain protein; not shown: His tag
Procedure: (§1) Briefly, EGFR his tag protein was diluted with PBS to 2 μg/mL, and 100 μL of the antigen was added to each well of an ELISA plate and coated overnight at 4° C. The next day, the plates were washed twice with PBST (containing 0.5% TWEEN-20), and then blocked with 3% BSA at 37° C. for 1.5 h, followed by two washes with PBST. […] VHH-IgG4 antibodies were diluted to 2000 nM and then serially diluted 4-fold for 8 gradients. […] After washing 3 times, HRP goat anti-mouse IgG (Goat anti-Mouse IgG) (H+L) antibody (Abcam, cat #ab205719) diluted at 1:3000 was added to each well, and the plate was incubated at 37° C. for 40 min. The plates were then washed 3 times with PBST, and 100 μL of TMB substrate was added to each well and allowed to react for 3-5 min. The reaction was stopped by adding 100 μL of 3N hydrochloric acid per well. After stopping the reaction, the optical density at 450/650 nm was measured using a Tecan microplate reader. The dose-response curve was plotted, and the IC50 was calculated using GraphPad Prism 8.0 software.

[3] = target: T3, EGFR on SKOV3 and Aspc-1 tumor cells (human, UniProt P00533); test: flow cytometry on Aspc-1 tumor cells, anti-human IgG PE, MFI, curve fit; unit from the concentration axis and paragraph 62 [table]
T3 construct: endogenous, on the cell surface; the cell line is named under assay; also called tumor cell EGFR
Procedure: (§2) Two kinds of tumor cells, SKOV3 and Aspc-1, expressing EGFR were respectively plated in 96 well plates, with 3×10⁵ cells per well, and then the tumor cells were incubated with gradient diluted VHH-IgG4 antibody. After incubation on ice for half an hour, anti human IgG PE (Jackson Immuno Research, Code: 109-117-008, Lot:145501) was added for incubation, and then CytoFLEX flow cytometry was used for detection. The EC50 of the antibody was calculated by curve fitting.

[4] = target: T3, EGFR on SKOV3 and Aspc-1 tumor cells; test: flow cytometry on Aspc-1 tumor cells, anti-human IgG PE, MFI, curve fit; unit from the concentration axis and paragraph 62; the curve is barely above Isotype 2: MFI at most about 1500 [table]
Procedure: as §2

[5] = target: T3, EGFR on SKOV3 and Aspc-1 tumor cells; test: flow cytometry on SKOV3 tumor cells, anti-human IgG PE, MFI, curve fit; unit from the concentration axis and paragraph 62; the curve is barely above Isotype 2: MFI about 1800 at about 250 nM, no plateau [table]
Procedure: as §2

[6] = target: T2, human EGFR.His antigen (Acro, Cat …); test: competition ELISA: EGFR his tag protein coated, antibody titrated together with Human EGF-mouse IgG2a Fc, bound EGF detected with HRP anti-mouse IgG, unit taken from the concentration axis (paragraph 62 says nM); the curve does not fall (OD450 about 2.4 to 2.65), no blocking, so the fit is not meaningful [table]
Procedure: as §1

[7] = target: T3, EGFR on SKOV3 and Aspc-1 tumor cells; test: flow cytometry on Aspc-1 tumor cells, anti-human IgG PE, MFI, curve fit; unit from the concentration axis and paragraph 62; no upper plateau within the range shown [table]
Procedure: as §2

[8] = target: T2, human EGFR.His antigen (Acro, Cat …); test: competition ELISA: EGFR his tag protein coated, antibody titrated together with Human EGF-mouse IgG2a Fc, bound EGF detected with HRP anti-mouse IgG, unit taken from the concentration axis (paragraph 62 says nM); OD450 falls only from about 2.4 to about 2.1-2.2 [table]
Procedure: as §1

B1: E002 VHH-IgG4 antibody (antibody, V domains shown)
VH: QVQLVESGGGLVQAGGSLRLSCAASGFTFSDYAVSWYRQAPGKEREFVARITGTGETSRYEDSVKGRFAISRDNVKNTAYLQMNSLKPEDTAVYYCSIYHPPRDYWGQGTQVTVSS
notes: VHH fused to IgG4 (VHH-IgG4), expressed in ExpiCHO, protein A purified; not shown: human IgG4 constant part from the pCDNA3.4-IgG4 vector
binding result [1]: no binding (tested: 2000 nM) | IC50 [2]: 0.038 µg/mL | EC50 [3]: 3.7 nM

B2: E004 VHH-IgG4 antibody (antibody, V domains shown, not shown: a dimerising Fc or GST)
VH: EVQLVESGGGLAQSGGSLRLACEASGFPFETYAMSWARQTPGNEPEWVAGIFPDGKHTAYAHSVKGRFTISRVNANNTVYLQMDSLKPEDTAVYYCAKDLPFFATPSFYIGYWGQGTLVTVSS
EC50 [4]: 3.6 nM | EC50 [5]: 245 nM | IC50 [6]: ~22.8 µg/mL

B3: E005 VHH-IgG4 antibody (antibody, V domains shown)
VH: QVQLVESGGGLVQPGGSLRLSCEASGFAFSDYTMRWHRQAAGKELELVAYITSAGDIIKYANSVRGRFTISRDNAKNTLYLQMDSLKPEDTAVYRCNALVSASVRASDYWGQGTLVTVSS
notes: as for B1
EC50 [7]: 15 nM | IC50 [8]: 0.033 µg/mL

B4: E007 VHH-IgG4 antibody (antibody, V domains shown, not shown: a dimerising Fc or GST)
VH: EVQLVESGGGLVQPGGSLRLSCEASGFSFSDHTMRWHRQAAGKNLELVAYITPAGDIIKYADSVQGRFTISRDNAKNMLYLQMDSLRPDDTAVYRCNALVSAAVRASDYWGQGTQVTVSS
EC50 [7]: 39 nM

B5: E008 VHH-IgG4 antibody (antibody, V domains shown)
VH: EVQVVESGGGLVQSGGSLTLSCTSSGLPLLDYAIGWFRQAPGKEREAVSAISISEGSTYYTDSVRGRFTISRDNNKNKVYLRMDNLKPEDTAVYYCAADKTDIGFWLLVGGAGGGEVRYEYWGQGTQVTVSS
notes: as for B1
binding result [1]: no binding (tested: 2000 nM) | EC50 [3]: 1.5 nM

B6: E003 VHH-IgG4 antibody (antibody, V domains shown, not shown: a dimerising Fc or GST)
VH: QVQLVESGGGLVQPGGSLRLSCVASGGVFSSYAMGWYRQVPGKLRELVATITSGHSTTYADIVRGRFTISRDNTKNTVYLQMNRLEPDDTAVYYCNRSPYTPGNWGQGTLVTVSS
EC50 [7]: 17 nM | IC50 [2]: 0.084 µg/mL
